Where “and” joins values, the source holds several entries; their conditions need not be identical. Equal entries are not always repeated. Where two headings read alike, the source gives them in different places. One block for each substance: values may come before it.
Assays:
[1] = target: Design 2994 L1: CR8071 lambda light chain E124Q_T131K; assay: SMCA, LC-MS
[2] = target: Design 2994 L1: CR8071 lambda light chain E124Q_T131K; assay: SMCA: H1, L1, H2, L2 co-expressed in CHO-3E7, protein A, LC-MS
[3] = target: Design 4320 L1: CR8071 lambda light chain T116F_K129T_V133D_S176F; assay: SMCA, LC-MS
[4] = target: Design 4320 L1: CR8071 lambda light chain T116F_K129T_V133D_S176F; assay: SMCA: H1, L1, H2, L2 co-expressed in CHO-3E7, protein A, LC-MS
[5] = target: SGN-CD19a kappa light chain Q124K_V133A_T178R (L2 of design 3109, systems B and C); assay: SMCA LC-MS
[6] = target: SGN-CD19a kappa light chain Q124K_V133A_T178R (L2 of design 3109, systems B and C); assay: SMCA LC-MS; remark: listed apart in the source
[7] = target: SGN-CD19a kappa light chain Q124K_V133A_T178R (L2 of design 3109, systems B and C); assay: SMCA LC-MS; remark: listed apart in the source
[8] = target: Design 3947 L2: SGN-CD19a kappa light chain S131K_S176K; assay: SMCA: H1, L1, H2, L2 co-expressed, protein A, LC-MS
[9] = target: Design 3947 L2: SGN-CD19a kappa light chain S131K_S176K; assay: as above; remark: listed apart in the source
[10] = target: Design 3947 L2: SGN-CD19a kappa light chain S131K_S176K; assay: as above; remark: listed apart in the source
[11] = target: Design 3951 L2: SGN-CD19a kappa light chain S121K_S131K_S176K; assay: as above
[12] = target: Design 3951 L2: SGN-CD19a kappa light chain S121K_S131K_S176K; assay: as above; remark: listed apart in the source
[13] = target: Design 3951 L2: SGN-CD19a kappa light chain S121K_S131K_S176K; assay: as above; remark: listed apart in the source
[14] = target: Design 4320 L2: SGN-CD19a kappa light chain Q124K_L135A_T178R; assay: SMCA, LC-MS
[15] = target: Designs 4008 and 4010 L1: CR8071 lambda light chain K129T_V133D; assay: SMCA, LC-MS
[16] = target: Designs 4008 and 4010 L1: CR8071 lambda light chain K129T_V133D; assay: SMCA: H1, L1, H2, L2 co-expressed in CHO-3E7, protein A, LC-MS
[17] = target: Design 3997 L2: SGN-CD19a kappa light chain S121K_V133I_S176D_T178E; assay: SMCA, LC-MS
[18] = target: Design 3997 L2: SGN-CD19a kappa light chain S121K_V133I_S176D_T178E; assay: SMCA: H1, L1, H2, L2 co-expressed in CHO-3E7, protein A, LC-MS
[19] = target: CAT-2200 lambda light chain S176K_Y178L (L1), N-terminal FLAG tag; assay: LCCA, SPR of light chain tags
[20] = target: CAT-2200 lambda light chain S176K_Y178K (L1), N-terminal FLAG tag; assay: LCCA, SPR of light chain tags
[21] = target: CAT-2200 lambda light chain S176K_Y178R (L1), N-terminal FLAG tag; assay: LCCA, SPR of light chain tags
[22] = target: Pertuzumab kappa light chain V133G_S176D (L2), N-terminal HA tag; assay: LCCA, SPR of light chain tags
[23] = target: Pertuzumab kappa light chain V133G_S176D (L2), N-terminal HA tag; assay: LCCA, SPR of light chain tags; remark: listed apart in the source
[24] = target: CAT-2200 lambda light chain S176K_Y178R (L1), N-terminal FLAG tag; assay: LCCA, SPR of light chain tags; remark: listed apart in the source
[25] = target: Pertuzumab kappa light chain V133G_S176D_T178D (L2), N-terminal HA tag; assay: LCCA, SPR of light chain tags
[26] = target: Pertuzumab kappa light chain V133G_S176D (L2), N-terminal HA tag; assay: LCCA, SPR of light chain tags; remark: listed apart in the source
[27] = target: Design 3954 L2: SGN-CD19a kappa light chain S121K_S176E_T178E; assay: SMCA: H1, L1, H2, L2 co-expressed, protein A, LC-MS
[28] = target: Design 3954 L2: SGN-CD19a kappa light chain S121K_S176E_T178E; assay: as above; remark: listed apart in the source
[29] = target: Design 3954 L2: SGN-CD19a kappa light chain S121K_S176E_T178E; assay: as above; remark: listed apart in the source
[30] = target: Design 4040 L1: CR8071 lambda light chain K129T_S180E; assay: SMCA, LC-MS
[31] = target: Design 4040 L1: CR8071 lambda light chain K129T_S180E; assay: SMCA: H1, L1, H2, L2 co-expressed in CHO-3E7, protein A, LC-MS
[32] = target: Design 2994 L2: SGN-CD19a kappa light chain Q124E_V133D; assay: SMCA, LC-MS
[33] = target: Design 2994 L2: SGN-CD19a kappa light chain Q124E_V133D; assay: SMCA: H1, L1, H2, L2 co-expressed in CHO-3E7, protein A, LC-MS
[34] = target: Pertuzumab wild-type kappa light chain with N-terminal FLAG tag; assay: SMCA: H1, H2, L1, L2 co-expressed in CHO-3E7
[35] = target: Design 3997 L1: CR8071 lambda light chain S122D_E124Q_T131R; assay: SMCA, LC-MS
[36] = target: Design 3997 L1: CR8071 lambda light chain S122D_E124Q_T131R; assay: SMCA: H1, L1, H2, L2 co-expressed in CHO-3E7, protein A, LC-MS
[37] = target: Design 4040 L2: SGN-CD19a kappa light chain P44F_Q124K_T178R; assay: SMCA, LC-MS
[38] = target: Design 4040 L2: SGN-CD19a kappa light chain P44F_Q124K_T178R; assay: SMCA: H1, L1, H2, L2 co-expressed in CHO-3E7, protein A, LC-MS
[39] = target: Design 4040 L2: SGN-CD19a kappa light chain P44F_Q124K_T178R; assay: SMCA, LC-MS; remark: listed apart in the source
[40] = target: Design 4008 L2: SGN-CD19a kappa light chain Q124R_L135W_T178R; assay: SMCA, LC-MS
[41] = target: Design 4010 L2: SGN-CD19a kappa light chain S131R_V133G_L135W_S176R; assay: SMCA, LC-MS
[42] = target: CR8071 lambda light chain K129T_V133D (L1 of designs 3102 and 3109, system C); assay: SMCA LC-MS
[43] = target: CR8071 lambda light chain K129T_V133D (L1 of designs 3102 and 3109, system C); assay: SMCA LC-MS; remark: listed apart in the source
[44] = target: CR8071 lambda light chain K129T_V133D (L1 of designs 3102 and 3109, system C); assay: SMCA LC-MS; remark: listed apart in the source

Change in % H1L1 Pairing with respect to wild type [1]: -22.1%
% H1L1 Pairing [2]: 26.3%
Substance: Design 2994 H1: CR8071 heavy chain L143E_K145T_Q179E

Change in % H1L1 Pairing with respect to wild type [3]: 14.3%
% H1L1 Pairing [4]: 96.6%
Substance: Design 4320 H1: CR8071 heavy chain L143K_F174G

% H2L2 Pairing [8]: 70.3%
% H2L2 Pairing [9]: 94.5%
Change in % H2L2 Pairing with respect to wild type [9]: 23.2%
Change in % H2L2 Pairing with respect to wild type [10]: 16.1%
Substance: Design 3947 H2: SGN-CD19a heavy chain K145T_S186E

Change in % H2L2 Pairing with respect to wild type [14]: 17.9% and 21.5%
Substance: Design 4320 H2: SGN-CD19a heavy chain L143E_K145T_Q179E_V190F

Change in % H1L1 Pairing with respect to wild type [15]: 17.3% and 17%
% H1L1 Pairing [16]: 99.6% and 99.3%
Substance: Designs 4008 and 4010 H1: CR8071 heavy chain A139W_L143K

Change in % H1L1 Pairing with respect to wild type [30]: 30.6%
% H1L1 Pairing [31]: 98.7%
Substance: Design 4040 H1: CR8071 heavy chain S186R

Change in % H2L2 Pairing with respect to wild type [32]: 45% and 20.1%
% H2L2 Pairing [33]: 99.2% and 99.7%
Substance: Design 2994 H2: SGN-CD19a heavy chain L143K

Change in % H1L1 Pairing with respect to wild type [35]: 27.9%
% H1L1 Pairing [36]: 96%
Substance: Design 3997 H1: CR8071 heavy chain A125R_L143E_K145T_Q179E

Change in % H2L2 Pairing with respect to wild type [37]: 27.3%
% H2L2 Pairing [38]: 75.8% and 98.6%
Change in % H2L2 Pairing with respect to wild type [39]: 21.6%
Substance: Design 4040 H2: SGN-CD19a heavy chain L45P_L143E_K145T_Q179E

Change in % H2L2 Pairing with respect to wild type [41]: 33.9% and 38.7%
Substance: Design 4010 H2: SGN-CD19a heavy chain L124E_K145T_Q179E

Change in % H1L1 Pairing with respect to wild type [42]: 15.9%
% H1L1 Pairing [43]: 84%
% H1L1 Pairing [44]: 88.7%
Change in % H1L1 Pairing with respect to wild type [44]: 6.4%
Substance: CR8071 heavy chain L143K (H1 of designs 3102 and 3109, system C)

Continued, substance first:

Substance: SGN-CD19a heavy chain L124W_L143E_K145T_Q179E (H2 of design 3109, systems B and C)
Change in % H2L2 Pairing with respect to wild type [5]: 28.3%
% H2L2 Pairing [6]: 99.6%
% H2L2 Pairing [7]: 97.1%
Change in % H2L2 Pairing with respect to wild type [7]: 42.9%

Substance: Design 3951 H2: SGN-CD19a heavy chain K145T_S186E_K228D
% H2L2 Pairing [11]: 77.5%
% H2L2 Pairing [12]: 97.1%
Change in % H2L2 Pairing with respect to wild type [12]: 25.8%
Change in % H2L2 Pairing with respect to wild type [13]: 23.3%

Substance: Design 3997 H2: SGN-CD19a heavy chain S188K_K228D
Change in % H2L2 Pairing with respect to wild type [17]: 28.6%
% H2L2 Pairing [18]: 99.9%

Substance: Pertuzumab Fab heavy chain L124R (H2), ABD2-His6 tagged
H2L2:H2L1 normalized median ratio [19]: 26%
H2L2:H2L1 normalized median ratio [20]: 16%
H2L2:H2L1 normalized median ratio [21]: 15%
H2L2:H2L1 normalized median ratio [22]: 74%
H2L2:H2L1 normalized median scalar value ln(r1/f1) [22]: 1.06
H2L2:H2L1 normalized median ratio [23]: 84%
H2L2:H2L1 normalized median scalar value ln(r1/f1) [23]: 1.63
H2L2:H2L1 normalized median ratio [24]: 39%
H2L2:H2L1 normalized median ratio [25]: 61%
H2L2:H2L1 normalized median scalar value ln(r1/f1) [25]: 0.43
H2L2:H2L1 normalized median ratio [26]: 85%
H2L2:H2L1 normalized median scalar value ln(r1/f1) [26]: 1.75

Substance: Design 3954 H2: SGN-CD19a heavy chain S188K_K228D
% H2L2 Pairing [27]: 61.8%
% H2L2 Pairing [28]: 98.7%
Change in % H2L2 Pairing with respect to wild type [28]: 19.1%
Change in % H2L2 Pairing with respect to wild type [29]: 7.6%

Substance: Pertuzumab wild-type full-length IgG1 heavy chain (heterodimeric Fc) (from UniProt P0DOX5 2-448)
% H2L2 Pairing (over all H2 species) [34]: 79.9%

Substance: Design 4008 H2: SGN-CD19a heavy chain L143E_K145T_Q179E
Change in % H2L2 Pairing with respect to wild type [40]: 33.3% and 38.4%

From patent publication US20190338048A1
